Assay results reported in the nanobody polyreactivity screen of Harvey et al. (2022).

Assay: yeast display, Sf9 membrane polyspecificity reagent, FACS + sequencing; frameworks hold sequencing errors
In short: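 A synthetic nanobody library was expressed on Saccharomyces cerevisiae BJ5465 by galactose induction for 36–48 hours. The library was stained for 1 hour at 4 °C with 10% biotinylated, detergent-solubilized Sf9 membrane reagent and enriched with streptavidin microbeads before FACS. Low and high (top ~1%) gates were set on anti-HA fluorescence for expression and streptavidin fluorescence for reagent binding, and each polyreactivity label reflects the gate of origin.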

QVQLVESGGGLVQAGGSLRLCCAASGSTFGWNAMRSYRQAPGNERELVAAISSSGGITYYADSVKGRFPISRDNAKNTVYLQMNSLKPEDTAVYYCAAERDDDWFNYWGQGTQVTVSS
polyreactivity (PSR sort gate): low polyreactivity

QVQLVESGGGLVQAGGSLRLSCAASGSTYENAMGWYRQAPGKERELVAVISRSGGSTYYADSVKGRFTISRDNAKNTVYLQMNSLNPEDTAVYYCATVYSAWSWVHGYYVAMDYWGQGTQVTVSS
polyreactivity (PSR sort gate): high polyreactivity

QVQLVESGGGLVQAGGSLRLSCAASGRTFSSNAMGWYRQAPGKERELVAAITYTGTSTYYADSVKGRFTISRDYAKNTVYLQMNSLKPEDTAVYYCAALYVQGTHTYGYWGQGTQVTVSS
polyreactivity (PSR sort gate): high polyreactivity

QVQLVESGGGLVPAGGSLRLSCAASGRTFAGNAMGWYRPAPGTERELVAVISRGGSTYYADSVKGRFTISRDNAKNTVYLQMNSLKPEDTAVYYCAARLRTTSVRGRYDYWGQGTQVTVSS
polyreactivity (PSR sort gate): high polyreactivity

QVQLVESGGGLVQAGGSHRLSCAASGSTFDTYPMGWYRQEPGKERELVAAISRSGTSTYYADSVKGRFTISRDNAKNTVYLQMKSLKPEDTAVYYCAAYGPRVNGEIGREYYYWGQGTQVTVSS
polyreactivity (PSR sort gate): low polyreactivity

QVQLVESGGGLVHAGGSLRLSCASSGRIFQYNTMGWYRQAPGKERELVAGISSGGSTNYADSVKGRFTISRDNAKNTVYLQMNSLKPEDTAVYYCAARAKRYNVRFDYWGQGTQVTVSS
polyreactivity (PSR sort gate): high polyreactivity

QVQLVESGGGLVQAGGSLRLSCAASGSTFADYAMGWYRQAPGKERELVAAISWSGGRTYYADSVKGRFTISRDNAKNTVYLQMNSLKPEDTAVYYCAAGFGDGPGNGYYTRYSWDDDYWGQGTQVTVSS
polyreactivity (PSR sort gate): low polyreactivity

QVQLVESGGGLVQAGGSLRLSCAASGSTFRYYAMGWYRQAPGKERELVAGISSSGGSTYYADSVKGRFTISRDNAKNTVYLQMNSLNPEDTAVYYCIAARGTSRSWAVFADYDYWGQGTQVTVSS
polyreactivity (PSR sort gate): high polyreactivity

QVQLVESGGGLVQAGGSLRLSCAASGSIFSNYAMGWYRQAPGKERELVAAITWSGDDTYYADSVKGRFTISRDNAKTTVYLQMNSLKPVDTAVYYCAAEYHGYRYNYYPYSHYFIYESWGQGTQVTVSS
polyreactivity (PSR sort gate): high polyreactivity

QVQLVESGGGLVHAGGSLRLSCAASGSTFSRNTMGWYRQAPGKERELVAAITKSAVSTYNADSVKGRFTISRDNAKNTVYLQMNSLKPEDTAVYYCAKVYRTSTSKAYDYWGQGTQVTVSS
polyreactivity (PSR sort gate): high polyreactivity

QVQLVESGGGLVQAGGSLRLSCAASGGTFSYYAMGWYRQAPGKERELVASISTDGGSTYYADSVKGRFTISRDNAKNTVYLQMNSLKPEDTAVYYCNARPRGYSDRYGYWGQGTQVTVSS
polyreactivity (PSR sort gate): high polyreactivity

QVQLVESGGGLDQAGGSLRLSCAASGRIFSPNAMGWYRQAPGKERELVAAISRIGGRTYYADSVKGRFTISRDNAKNTVYLQMNSLKPEDTGVFYCNVVATHTDFTYDFWGQGTQVTVSS
polyreactivity (PSR sort gate): high polyreactivity

QVHLVESGGGLVQAGGSLRLSCAASGSIFLRYAMGWYRKAPGKERVLFAGITSSGGSTYYADSVQGRFTISRDNAKNTVYLQMNSLKPEDTAVYYCARGLYRIYSPVRYGYWGQGTQVTVSS
polyreactivity (PSR sort gate): high polyreactivity

QVQLVESGGGLVQAGGSLRLSCAASGIIFYDYAMGWYRQAPGKERELVAAISTDAGSTYYADSVKGRFTISRDNAKNTVYLQMNCLKPEDTAVYYCNADELSYYVSWDYEYDYWGQGTQVTVSS
polyreactivity (PSR sort gate): high polyreactivity

QVQLVESGGGLVQAGGSLRLTCAASGNIFKVYAMGWSRQAPGKERELVAAITSGGGTKYADSVKGRFTISRDNAKNTVYLQMNSLKPEDTAVYYCAARFKYDVAKRYGYWGQGTQVTVSS
polyreactivity (PSR sort gate): high polyreactivity

QVQLVESGGGLVQAGGSLRLSCAASGRIFGYYTMGSYRQAPGKEREFVASISSTGGSTYYADSVKGRFTISRDNAKNTVYLQMNSLKPEDTAVYYCAARGRYVIDGYRMYYWGQGTQVTVSS
polyreactivity (PSR sort gate): high polyreactivity

QVQIVESGGGLVQAGGSLRLSCAASGSIFKYYAMGSYRQAPVKERELVAAISSGGSTKYADSVKARFTISRDNEKNTVYLHMTRLIPEDTAVYYCAARDPSRHARRAYDYWGQGTQVTVSS
polyreactivity (PSR sort gate): low polyreactivity

QVQLVESGGGLVQAGGSLRLSCAASVTIFGDYTMGWYRQAPGKERELVAAITWSAGRTYYADSVKGRFTISRDNAKNTVYLQMNSLKPEDTAVYYCAAQVPEDTETVDYWGQGTQVTVSS
polyreactivity (PSR sort gate): low polyreactivity

QVQLVESGGGLVQAGGSLRLSCAASGSTFHSNAMGWYRQAPGKERELVAAISQGGGRTYYADSVKGRFTISRDNAKNTVYLQMNSLKPEDTAVYYCNRRTRGLIDGGMDYWGQGTQVTVSS
polyreactivity (PSR sort gate): low polyreactivity

QVQLVESGGGLVQAGGSLRLSCAASGLTFYQYALGWSRQAPGNDREWVAAITRGGTTNYADSVKGRFTISRDNAKNTVYLQMNSLKPEDTAVYYCNKGLVFDGYDYWGQGTQVTVSS
polyreactivity (PSR sort gate): high polyreactivity

QVQLVESGGGLVQAGGSLRLSCAASGRNFDYYTMGWYRQAPGKERELVARIRRSAGTTYYADSVKGRFTISRDNAKNPVYCQMNSLIPEDTAVYYCNVVPYFKYGYWGQGTQVTGSS
polyreactivity (PSR sort gate): low polyreactivity

QVQLVESGGGLVQAGGSLRLSCAASGRIFAYNTMGWYRQAPGKERELVAVITSGGSTNYADSVKGRFTISRDNAKNTVYLQMNSLKPEDTAVDYCNAPYVARKRFSYNYWGQGTQVTVSS
polyreactivity (PSR sort gate): high polyreactivity

QVQLVESGGGLVQAGGSLRLSCAASGSILDPNAMGWYRQAPGKERELVAAISSSGGSTYYADSVKGRFTISRDNAKNTVYLQMNSLKPEDTAVYYCAADHFIPIYSKYDYWGQGTQVTVSS
polyreactivity (PSR sort gate): high polyreactivity

QVQLVESGGGLVQARGSLSLSCAASGSIFYYNAIGWYRQPPGKERELVATITSAVSTNYADSVKGRFTISRANAKNPVYLQMNSLKPEDTAVYYCAADDYQVQYDYWGQGTQVTVSS
polyreactivity (PSR sort gate): low polyreactivity

QVQLVESGGGLVQAGGSLRLSCAASGRIFHNYAMGWYRQAPGKERELVAGISSRGGSTYYADSVKGRFTISRDNAKNTVYLQMNSLKPEDTAVYYCAKDKSPYGYATNQYRKYYYWGQGTQVTVSS
polyreactivity (PSR sort gate): low polyreactivity

QVQLVESGGGLVQAGGSLRLSCAASGQIFYRYAMGWDRQAPGKERELVAAISSGGSTYYADSVKGRFTISRDNAKNTVYLQMNSLKPEDTAVYYCNTGYWYVSLGSYDYYGEYDYWGQGTQVTVSS
polyreactivity (PSR sort gate): high polyreactivity

QVQLVESGGGLVQAGGSLRLSCAASGSIFYQYAMGWYRQAPGKERELVAGITWSGGSTYYADSVKGRFTISRDNAKYTVYLQMNSLKPEDTAVFYCAAQYFWYVYSYDYWGQGTQVTVSS
polyreactivity (PSR sort gate): high polyreactivity

QVQLVESGGGLVQAGGSLRLSCDPSGSIFDGYGMGWYRQAPGKERELVASITWNDGSTYYADSVKGRFTISRDNAKNTVYLQMNSLKPEDTAVYYCAADQWGYEYDYWGQGTQVTVSS
polyreactivity (PSR sort gate): low polyreactivity

QVQLQESCGGLVQVGGSLRLSCAASVTIFIYGFLGWYRQAPGKERELVASINLGGITNYADSVKGRFTISRDNANNTVYLQMISLKPEDTAVYYCAAYVVTGQNYGYWGQGTQVTVSS
polyreactivity (PSR sort gate): low polyreactivity

QVQLVESGGGLVQAGGSLRLSCAASGFTFDYYAMGWYRQAPGKERELVAAISVSGGITYYADSVKGRFTISRDNAKNTVYLQMNSLKPEDTAVYYCNAVFYYPYPADRRDYWGQGTQVTVSS
polyreactivity (PSR sort gate): high polyreactivity

QVQLVESGGGLVQAGGSLRLSCAASGSTFDRNVMGWYRQAPGKERELVAAISRVSSTNYADSVKGRFTFSRDNAKNTVYLLMNSLKPEDTAVYYCAADRAGSIMNYWGQGTQVTVSS
polyreactivity (PSR sort gate): low polyreactivity

QVQLVESGGGLVQAGGSLRLSCAASGNTFYAYAMGWYRQAPGKERELVASITLSGDSTYYADSVKGRFTISRDNAKNSVYLQMSSLIPEDTAVYYCAGVYTYPLGYYHYTYDYWGQGTQVTVSS
polyreactivity (PSR sort gate): low polyreactivity

QVQLVESGGGLVQAGGSLRLSCAASGRTFGGYAMGWYRQAPGKERELVAAIRSRGGRTYYADSVKGRFTISRDNAKNTVYLQMNSLKPEDTAVYYCATYGNKWGEDYWGQGTQVTVSS
polyreactivity (PSR sort gate): high polyreactivity

QVQLVESGGGLVQAGGSLRLSCAASGFIFSRYTMGWYRQAPGKERELVAAISKRGGSTYYADSVKGRFTISRDNAKNTVYLQMNSLKPEDTAVYYCAADRLPSGSLVEYWGQGTQVTVSS
polyreactivity (PSR sort gate): high polyreactivity

QVQLVESGGGLVQAGGSLRLSCAASGRIFGYYAMGWYRQAPGKERELVARITWSGGDTYYADSVKGRFTISRDNAKNTVYLQMNSLKPEDTAVYYCAADYLDSTYGYVYGWDDYWGQGTQVTVSS
polyreactivity (PSR sort gate): low polyreactivity

QVQLVESGGGLVQAGGSLRLSCAASGLIFIKNAMGWYRQAPGKERELVAAITRGSSTTYADSVKGRFTISRDNAKNTVYLQMNSLKPEDPAVYYCAAQYGGGYLKPYRREYWGQGTQVTVSS
polyreactivity (PSR sort gate): high polyreactivity

QVQLVESGGGLVQAGGSLRLSCAASGSTMDYNAMGWYRQAPGKERELVAAITNGGSTTYADSVKGRFTISRDNAKNTVYLQMNSLNPEDTAVYYCAAKWYPQLWFWKFLTYNYWGQGPQVTVSS
polyreactivity (PSR sort gate): low polyreactivity

QVQLVESGGGLVQAGGSLRLICAASGLTFFSYAMGWYRQATGKEREFVAAITRRGGRTYYADSVKGRFTISRENANNTVYLQMNSLKPEDTAVYYCNAVPVLISVYRMEYWGQGTQVNVSS
polyreactivity (PSR sort gate): high polyreactivity

QVQLVESGGGLVQAGGSLRLSCAASGSTFNEYVMGWYRHAPGKERELVAAITGGGGRTYYADSVKGRFTISRDNAKNTVYLQMNSLKPEDTAVYYCAKRYLFVTYWGFFRYDYWGQGTQVTVSS
polyreactivity (PSR sort gate): low polyreactivity

QVQLVESGGGLVQAGGSLRLSCAASGSTFDWYAMGWYRQAPGKEREFVAAIDQDEDSTYYADSVKGRFTISRDNAKNTVYLQMNSLKPEVTAVYYCAADHAWYSLFDYWGQGTQVTVSS
polyreactivity (PSR sort gate): low polyreactivity

QVQLVESGGGLVQAGGSLRLSSAASGRIFPRYAMGWYSQAPGKERELVAAISGSGGGTYYADSVKGRFTISRDNAKNTVYLQMNSLKPEDTAVYYCAAVATQEKYDYWGQGTQVTVSS
polyreactivity (PSR sort gate): low polyreactivity

QVQLVESGGGLVQAGGSLRLSCAASGSIFDRYAMGWYRQAPGKERELVAAISTGGSTNYADSVKGRFTISRDNAKNTVYLQMNSLKPEDTAVYYCAAERYWVFHGTISYKYDYWGQGTQVTVSS
polyreactivity (PSR sort gate): low polyreactivity

QVQLVESGGGLVQAGGSLRLSCAASGRIFRDYAMGWYRQAPGKERELVAAITRSGDTTYYADSVKGRFTISRDNAKNTVYLQMNSLKPEDTAVYYCAARYVSRYYVYRGFEYWGQGTQVTVSS
polyreactivity (PSR sort gate): high polyreactivity
